Data taken from US20110318347A1.

Columns and labels:
human CXCR4 (human) [1] = test: competition vs [125I]-238D4 (3 nM), membranes of HEK293T cells expressing CXCR4; Table B-3 competition vs [125I]-238D4, at 0.5 µM: no displacement
human CXCR4 (human) [2] = test: competition vs [125I]-238D2 (3 nM), membranes of HEK293T cells expressing CXCR4; Table B-3 competition vs [125I]-238D2, up to 0.5 µM; bound only
human CXCR4 (human) [3] = test: competition vs [125I]-238D2 (3 nM), membranes of HEK293T cells expressing CXCR4; Table B-3 competition vs [125I]-238D2, at 0.5 µM: no displacement
human CXCR4 (human) [4] = test: competition vs [125I]-238D4 (3 nM), membranes of HEK293T cells expressing CXCR4; Table B-3 competition vs [125I]-238D4, up to 0.5 µM; bound only
human CXCR4 (human) [5] = test: periplasmic fraction (1:10), displacement of [125I]-CXCL12, HEK293T-CXCR4 membranes; - = 0-29%, + = 30-69%, ++ = 70-100%; screening of clones (Table B-2): 30-69% displacement of [125I]-CXCL12, HEK293T-CXCR4 membranes
human CXCR4 (human) [6] = test: competition vs [125I]-CXCL12 (40 pM), membranes of HEK293T cells expressing CXCR4; Table B-3 competition vs [125I]-CXCL12, up to 0.5 µM; bound only
human CXCR4 (human) [7] = test: competition vs [125I]-CXCL12; potency relative to monovalent 238D2
human CXCR4 (human) [8] = test: competition vs [125I]-CXCL12; potency relative to monovalent 238D4
human CXCR4 (human) [9] = biological target: human CXCR4 (human)
human CXCR4 (human) [10] = test: competition with [125I]-CXCL12 on HEK293T-CXCR4 membranes
human CXCR4 (human) [11] = test: competition vs [125I]-CXCL12, membranes of HEK293T cells expressing CXCR4
human CXCR4 (human) [12] = test: cell-based or functional assay
CCR5 = CCR5 (UniProt P51681); test: cell-based or functional assay
human CXCR4 (human) [13] = test: competition vs [125I]-CXCL12, membranes of HEK293T cells expressing CXCR4; displacement at 0.5 µM, maximum not reached

Sequence of CCR5 (P51681 whole entry): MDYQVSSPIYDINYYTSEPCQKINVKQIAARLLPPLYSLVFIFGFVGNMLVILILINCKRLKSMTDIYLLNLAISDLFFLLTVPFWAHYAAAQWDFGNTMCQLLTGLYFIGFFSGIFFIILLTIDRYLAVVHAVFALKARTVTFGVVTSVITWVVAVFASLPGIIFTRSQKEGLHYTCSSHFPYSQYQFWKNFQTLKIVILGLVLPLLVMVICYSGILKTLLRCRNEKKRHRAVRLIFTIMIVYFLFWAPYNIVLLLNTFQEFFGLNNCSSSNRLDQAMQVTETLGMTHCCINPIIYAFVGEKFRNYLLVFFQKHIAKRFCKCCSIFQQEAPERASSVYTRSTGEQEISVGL

B1: Nanobody 237G7 (VHH, from a related filing, part only)
VHH: EVQLVESGGGLVQPGGSLRLSCAASSFIGNYHAIVWLRQAPGKELEGVSCITSRDSITYYASFVKGRFTISRDDAKNTVYLQMNNLKPEDTAVYYCAVBTSMTCPTLIVRFNYRGQGTQVTVSS
With B1 the Displacem. (%) (human CXCR4 (human) [1]) was 0%, the pKi (human CXCR4 (human) [2]) was < 6.3 and the Displacem. (%) (human CXCR4 (human) [3]) was 0%. The pKi (human CXCR4 (human) [4]) was < 6.3, the percent inhibition of specific [125I]-CXCL12 binding (human CXCR4 (human) [5]) was 30 to 69% and the pKi (human CXCR4 (human) [6]) was < 6.3.

B2: 238D2-20GS-238D4 (VHH)
chain: EVQLVESGGGLVQTGGSLRLSCAASGFTFSSYAMSWVRQAPGKGLEWVSGIKSSGDSTRYAGSVKGRFTISRDNAKNMLYLQMYSLKPEDTAVYYCAKSRVSRTGLYTYDNRGQGTQVTVSSGGGGSGGGGSGGGGSGGGGSEVQLMESGGGLVQAGGSLRLSCAASGRTFNNYAMGWFRRAPGKEREFVAAITRSGVRSGVSAIYGDSVKDRFTISRDNAKNTLYLQMNSLKPEDTAVYTCAASAIGSGALRRFEYDYSGQGTQVTVSS
In the case of B2, the Rel. potency (human CXCR4 (human) [7]) is reported as 27 fold, the Rel. potency (human CXCR4 (human) [8]) is reported as 17 fold and the IC50 (read off the curve), migration of Jurkat cells towards 0.3 nM CXCL12 (human CXCR4 (human) [9]) is reported as 0.2 nM. It also gave an IC50 (read off the curve) (human CXCR4 (human) [10]) of 0.5 nM, a Displacem. (%) (human CXCR4 (human) [11]) of 103% and a pKi (human CXCR4 (human) [11]) of 9.44. The Anti-HIV-1 activity (in nM), MT-4/NL4.3 (human CXCR4 (human) [12]) was 0.25 nM, the Anti-HIV-1 activity (in nM), PBMC/HE (human CXCR4 (human) [12]) was 2.3 nM and the Anti-HIV-1 activity (in nM), PBMC/NL4.3 (human CXCR4 (human) [12]) was 0.2 nM. It also gave an Anti-HIV-1 activity (in nM), U87.CD4.CXCR4/NL4.3 (human CXCR4 (human) [12]) of 0.35 nM, a Chemotaxis, Jurkat/0.3 nM CXCL12, Imax (%) (human CXCR4 (human) [12]) of 100% and a Chemotaxis, Jurkat/0.3 nM CXCL12, pKi or pIC50 (human CXCR4 (human) [12]) of 10.2. For the same binder, the IC50, HIV-1 NL4.3, MT-4 cells, exp. 1 (human CXCR4 (human) [12]) was 0.0069 µg/mL, the IC50, HIV-1 NL4.3, PBMC donor 1 (human CXCR4 (human) [12]) was 0.0182 µg/mL and the IC50, HIV-1 NL4.3, PBMC donor 2 (human CXCR4 (human) [12]) was 0.0092 µg/mL. It also gave an IC50, HIV-1 UG270, PBMC donor 1 (human CXCR4 (human) [12]) of 0.0242 µg/mL, an IC50, HIV-1 UG270, PBMC donor 2 (human CXCR4 (human) [12]) of 0.0831 µg/mL and an IC90, HIV-1 NL4.3, MT-4 cells, exp. 1 (human CXCR4 (human) [12]) of 0.0238 µg/mL. The IC90, HIV-1 NL4.3, PBMC donor 1 (human CXCR4 (human) [12]) was 0.0972 µg/mL, the IC90, HIV-1 NL4.3, PBMC donor 2 (human CXCR4 (human) [12]) was 0.0731 µg/mL and the IC90, HIV-1 UG270, PBMC donor 1 (human CXCR4 (human) [12]) was 0.139 µg/mL. It also gave an IC90, HIV-1 UG270, PBMC donor 2 (human CXCR4 (human) [12]) of 0.168 µg/mL, a nM IC50, HIV-1 NL4.3, PBMC donor 1 (human CXCR4 (human) [12]) of 0.61 nM and a nM IC50, HIV-1 NL4.3, PBMC donor 2 (human CXCR4 (human) [12]) of 0.31 nM. For the same binder, the nM IC50, HIV-1 UG270, PBMC donor 1 (human CXCR4 (human) [12]) was 0.81 nM, the nM IC50, HIV-1 UG270, PBMC donor 2 (human CXCR4 (human) [12]) was 2.77 nM and the Anti-HIV-1 activity (in nM), PBMC/BaL (CCR5) was > 100 nM. The Anti-HIV-1 activity (in nM), U87.CD4.CCR5/BaL (CCR5) was > 100 nM, the IC50, HIV-1 BaL, PBMC donor 1 (CCR5) was > 1 µg/mL and the IC50, HIV-1 BaL, PBMC donor 2 (CCR5) was > 1 µg/mL. For the same binder, the IC90, HIV-1 BaL, PBMC donor 1 (CCR5) was > 1 µg/mL, the IC90, HIV-1 BaL, PBMC donor 2 (CCR5) was > 1 µg/mL and the nM IC50, HIV-1 BAL, PBMC donor 1 (CCR5) was > 67 nM. For the same binder, the nM IC50, HIV-1 BAL, PBMC donor 2 (CCR5) was > 67 nM.

B3: 238D2-20GS-238B10 (VHH)
chain: EVQLVESGGGLVQTGGSLRLSCAASGFTFSSYAMSWVRQAPGKGLEWVSGIKSSGDSTRYAGSVKGRFTISRDNAKNMLYLQMYSLKPEDTAVYYCAKSRVSRTGLYTYDNRGQGTQVTVSSGGGGSGGGGSGGGGSGGGGSEVQLVESGGGFVQAGGSLRLSCETSGRPLLGYTIAWFRQVPGKEREFVAYHRWSDGANLYADSVKGRFTISGHNAKNTVSLQMNSLKPEDTAVYYCAAARMTTSNDKEYLYWGQGTQVTVSS
In the case of B3, the Rel. potency (human CXCR4 (human) [7]) is reported as < 0.1 fold, the pKi (human CXCR4 (human) [11]) is reported as < 7 and the Displacem. (%) (human CXCR4 (human) [13]) is reported as 43%.

B4: 238D2-10GS-238D2 (VHH)
chain: EVQLVESGGGLVQTGGSLRLSCAASGFTFSSYAMSWVRQAPGKGLEWVSGIKSSGDSTRYAGSVKGRFTISRDNAKNMLYLQMYSLKPEDTAVYYCAKSRVSRTGLYTYDNRGQGTQVTVSSGGGGSGGGGSEVQLVESGGGLVQTGGSLRLSCAASGFTFSSYAMSWVRQAPGKGLEWVSGIKSSGDSTRYAGSVKGRFTISRDNAKNMLYLQMYSLKPEDTAVYYCAKSRVSRTGLYTYDNRGQGTQVTVSS
Binder B4 has a Rel. potency (human CXCR4 (human) [7]) of 14 fold, a Displacem. (%) (human CXCR4 (human) [11]) of 95% and a pKi (human CXCR4 (human) [11]) of 9.16.
